This note sets out measurements from article PMC4081113, “Cationic Surfactant-Based Colorimetric Detection of Plasmodium Lactate Dehydrogenase, a Biomarker for Malaria, Using the Specific DNA Aptamer”.

Data set [1] has as its target Plasmodium vivax lactate dehydrogenase (PvLDH) (Plasmodium vivax, UniProt Q4PRK9 1-316). Put plainly: colorimetric AuNP/CTAB aggregation assay (A650/A520). The settings on record: protein: recombinant; chain copies: 4.
In data set [2] the target is Plasmodium falciparum lactate dehydrogenase (PfLDH) (Plasmodium falciparum, UniProt Q76NM3 1-316). Put plainly: colorimetric AuNP/CTAB aggregation assay (A650/A520); 4 nM CTAB, 20 nM aptamer; LOD 2.94 pM (not a Kd); 20 mM HEPES pH 7.4, room temperature, 20 nM aptamer with protein 20 min, then 4 nM CTAB 20 min, then AuNPs 5 min (200 uL final). The settings on record: protein: recombinant; chain copies: 4.

The target of data set [3] is fibrinogen (human, UniProt P02671-2;P02675;P02679-2 20-644;31-491;27-437). Put plainly: colorimetric AuNP/CTAB aggregation assay (A650/A520); 1 uM protein, 4 nM CTAB; 20 mM HEPES pH 7.4, room temperature, 20 nM aptamer with protein 20 min, then 4 nM CTAB 20 min, then AuNPs 5 min (200 uL final). The settings on record: protein: commercial; chain copies: 2;2;2.
Chain of fibrinogen (P02671 other isoform, or with tags, fused parts or gaps, chain 1 of 3): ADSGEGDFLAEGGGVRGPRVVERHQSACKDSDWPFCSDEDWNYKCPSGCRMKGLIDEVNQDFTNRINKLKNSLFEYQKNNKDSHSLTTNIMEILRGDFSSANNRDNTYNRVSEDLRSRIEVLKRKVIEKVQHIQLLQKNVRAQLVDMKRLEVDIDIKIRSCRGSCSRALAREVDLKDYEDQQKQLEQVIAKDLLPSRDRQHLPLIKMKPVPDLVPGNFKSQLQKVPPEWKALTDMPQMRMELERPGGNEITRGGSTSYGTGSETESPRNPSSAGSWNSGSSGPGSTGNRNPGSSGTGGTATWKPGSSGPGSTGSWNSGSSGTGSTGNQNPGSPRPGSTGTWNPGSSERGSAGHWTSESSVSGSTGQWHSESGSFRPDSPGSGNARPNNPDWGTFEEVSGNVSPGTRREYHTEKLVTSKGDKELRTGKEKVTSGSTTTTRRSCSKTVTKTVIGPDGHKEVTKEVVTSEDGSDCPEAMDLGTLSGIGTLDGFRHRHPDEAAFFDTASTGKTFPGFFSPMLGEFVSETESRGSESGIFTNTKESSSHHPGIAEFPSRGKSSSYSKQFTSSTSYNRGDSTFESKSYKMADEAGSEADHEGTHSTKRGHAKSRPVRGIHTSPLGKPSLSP
Chain of fibrinogen (P02675 31-491, chain 2 of 3): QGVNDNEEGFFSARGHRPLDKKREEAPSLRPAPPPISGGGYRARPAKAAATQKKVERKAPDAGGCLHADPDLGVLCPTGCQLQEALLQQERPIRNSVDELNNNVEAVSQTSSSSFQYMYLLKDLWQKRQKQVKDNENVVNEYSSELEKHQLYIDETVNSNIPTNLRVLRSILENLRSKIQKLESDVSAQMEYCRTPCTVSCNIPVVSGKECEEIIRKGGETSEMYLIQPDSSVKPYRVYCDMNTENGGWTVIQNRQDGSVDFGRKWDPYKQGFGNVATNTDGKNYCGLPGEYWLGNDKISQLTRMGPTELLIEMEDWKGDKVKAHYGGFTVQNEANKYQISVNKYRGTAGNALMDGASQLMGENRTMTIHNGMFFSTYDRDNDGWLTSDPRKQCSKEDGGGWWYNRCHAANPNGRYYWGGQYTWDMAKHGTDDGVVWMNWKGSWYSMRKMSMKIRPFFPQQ
Chain of fibrinogen (P02679 other isoform, or with tags, fused parts or gaps, chain 3 of 3): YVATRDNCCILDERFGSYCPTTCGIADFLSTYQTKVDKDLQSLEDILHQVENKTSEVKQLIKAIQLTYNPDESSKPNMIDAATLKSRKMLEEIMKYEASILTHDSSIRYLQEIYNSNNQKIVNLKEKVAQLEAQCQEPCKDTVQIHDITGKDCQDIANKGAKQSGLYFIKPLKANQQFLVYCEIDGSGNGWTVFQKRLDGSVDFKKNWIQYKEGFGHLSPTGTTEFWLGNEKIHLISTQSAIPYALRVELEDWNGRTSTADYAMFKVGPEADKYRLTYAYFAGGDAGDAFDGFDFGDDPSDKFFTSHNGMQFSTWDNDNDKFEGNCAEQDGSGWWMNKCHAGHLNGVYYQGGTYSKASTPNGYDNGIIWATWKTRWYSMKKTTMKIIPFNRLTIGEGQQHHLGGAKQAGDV
Data set [4] deals with human lactate dehydrogenase A chain (hLDHA) (human, UniProt P00338 2-332). The description is as above.

B1: pL1 aptamer (ssDNA)
DNA: GTTCGATTGGATTGTGCCGGAAGTGCTGGCTCGAAC
Consider B1, for which the binding result in data set [1] is given as “binds”; in data set [2] it was “binds”; in data set [3], “no binding”; in data set [4], “no binding”.
